Assay: soluble on expression in E. coli; label from the status in PepcDB or PDB records

Sequence	soluble on expression in E. coli
MAHHHHHHMESKICDPIGLDKNKFRKVEEENEENSKIVENGQMTYNDDLEMFTTIQLNQEIDIRKNPFPLHMINQKNDIPLCAQEFSKLTDPLYIKKICLEKVHDWSRCNEDDVCVNQILSGLTNQLFEVSIKEDTAIEYRITRRHVLFRIYGKDVDALYNPLSEFEVYKTMSKYRIAPLLLNTFDGGRIEEWLYGDPLSIDDLKNKSILVGIANVLGKFHTLSRKRHLPEHWDKTPCVFKMMDRWRLAVSNYKNLDKVTLDINKYIQESHKFLKFIKIYTQIENIANDIVFCHNDLQENNIMNTNKCLRLIDFEYSGYNFLSADIANFFIETTIDYSYNAYPFFIINKKNYISYESRILFVTTYLSKYLDDSTAASDQDIIDQFLEAIEVQALGLHLIWAFWSIIRGYQTKSYNEFDFFLYAKERLKMYDEQKQYLMSKNIIKDYDD	soluble
MAHHHHHHMFRSASCILLAAKTIPINPQKPFKLHTAGRDDVPPVPTTATYDTEQMKKCLEMMFRIRRMESLCDQSYKLKKIRGFCHLYIGQEAIPVGMENVLTLEDLIVTAYRDHAWYIVRGGTPGEVFAEMFGKEGGCSKGKGGSMHMYSVKNNFFGGNGIVGAQVPIGAGLGWRFALENRDKPRNVAVTFYGDGAANQGQVFEAMNIAAIHRIPVIFCCENNQFGMGTSKERAAYQPEMYRRGDYIPGLQVDGMDVLAVQEGTRWAKEWCLSGKGPIVLEFDSYRYVGHSMSDPDSQYRKKSDIQDVRKTRDCIHKMKDFMLEEGIMTDEEMKKLEKDVKKEVDQQLQPAEKQKPTPRSELFTDIYVGEQYEHRTTQGTVYAKP	not soluble
MAHHHHHHMFSESDRRVRYTKGIGPQEASKEGGLLGDEGGKTWRMPKDKPQQNPASVDDNRIDDSIARGDGDNARDSGDGPGDNFLFTPTAARVDVHPLVLLSLVDHYARVNTKVTQKRRVAGLLLGRYKRLPDGTQLLDINNSFAVPFDEDPHNSDVWFVDTNYADEMFHMFRRVLPRVQVVGWYSAGPSFSVQPNDMLLHLLVADRFTANPVYCIVNTDPGNKGVPVLAYTTVQGREGVRSLEFRNIPTHLGAEEAEEIGIEHLLRDLTDSTITTLSTQIQERELSLAHLSCVLQSIEDYLQDVAEGLMPISEDVLSVLQELISLQPHIYHLKRSTEMIRHSNDQAIAMFIAAIGRCVGALYDVIANRRRINSEMVEVRARREQALKEKLEHEQHKAKEVVTTEKDENNNAK	not soluble
MAHHHHHHMGDFALISMNGDRVFISLDPVFTSQSLWLQAAEGLGEREGVVPIASTETLHNLVEYMAFQAKRMAGVAEGECKGGQTVTLPISCTTCSGSGGLGYDVHSLLPDHDIAFLDRFGGTGGVWEVEQQEKLMELMATADFVGHGRLSRLCAVYISCRLMSATESDILSWFSVCGDRCGGVASADPEADDGNRAGERVLRDAERLRILNQMRKYIEIED	not soluble
MAHHHHHHMGSLVMGRCRRGAEETFEFREEYALLDAPIANAEHIPLRLRPQERKIQRLMRGVILASSYTDKVDSASALKLKNRELLVVKELTNALTGLIVGLDMRKAASFMRDHEFTPYQHEIRAAIEMCRRYKMMNPDLLRTDYVKFLYMIQDAVQSDMAREALGFNVVKELVTVGRYCETHNMQDILQDTRLPHCITPVPVMKDRNMLNRCLRGKDAVVGKLVKQYASEHRMHEDNVEVVVRSLNDANCFSNDNVETSERLLELLKQYFTPISCTELTSLAIDEGADGSRLTHNHKMQYIFVLQSLSLWKNMCRKMYMLWSLAEEDMLNPNEKYELRMTGQGLQRVQKAPQLFKAIQQVLQETKEELGEWVGSERIHLGDDQVPNAFHFIDKYGQVSRIIIPILRTLGHIDQLERHADHAAYLREVWGGGEQAKRAILRDFFRHGFDGSGGDNMDDAGSCIDGRLTSAWNWCNNIRFKEFYPLFLFSGFSSFDGDMGL	soluble
MAHHHHHHMGTLEAQTQGPGSMDFRIGQGYDVHQLVPGRPLIIGGVTIPYERGLLGHSDADVLLHAITDALFGAAALGDIGRHFSDTDPRFKGADSRALLRECASRVAQAGFAIRNVDSTIIAQAPKLAPHIDAMRANIAADLDLPLDRVNVKAKTNEKLGYLGRGEGIEAQAAALVVREAAA	soluble
MAHHHHHHMGTLEAQTQGPGSMDKTLDKQVAIVTGASRGIGRAIALELARRGAMVIGTATTEAGAEGIGAAFKQAGLEGRGAVLNVNDATAVDALVESTLKEFGALNVLVNNAGITQDQLAMRMKDDEWDAVIDTNLKAVFRLSRAVLRPMMKARGGRIVNITSVVGSAGNPGQVNYAAAKAGVAGMTRALAREIGSRGITVNCVAPGFIDTDMTKGLPQEQQTALKTQIPLGRLGSPEDIAHAVAFLASPQAGYITGTTLHVNGGMFMS	soluble
MAHHHHHHMGTLEAQTQGPGSMGSLSTSISSITTNTTNLGNSTAAALGGGATYDPATGAISAPSYTTYNANGTTATNTSVGAAIDNINANGIKYFHANSTDPDSVATGTNSVAIGPNAVANVDYSVAIGSGATTSAAVPVASASVGGLTFGGFAGSAPIGVFSVGAPGAERQITNVAAGRISAASTDAVNGSQLYATNSN	soluble
MAHHHHHHMGTLEAQTQGPGSMKLAINGFGRIGRNVFKIAFERGIDIVAINDLTDPKTLAHLLKYDSTFGVYNKKVESRDGAIVVDGREIKIIAERDPKNLPWAKLGIDVVIESTGVFSSATSDKGGYLDHVNHAGAKKVILTVPAKDEIKTIVLGVNDHDINSDLKAVSNASCTTNCLAPLAKVLHESFGIEQGLMTTVHAYTNDQRILDLPHSDLRRARAAALSIIPTSTGAAKAVGLVLPELKGKLNGTSMRVPVPTGSIVDLTVQLKKKDVTKEEINSVLRKASETPELKGILGYTEDPIVSSDIKGNSHSSIVDGLETMVLENGFAKILSWYDNEFGYSTRVVDLAQKLVK	soluble
MAHHHHHHMGTYFSKDLQECLREEKRNLNRSIRELEREIFKMENEKKQIEKNIRIHAKKNDITLVRTLAKDLVKIKQNVIKYNKIKSHLLSMKIKLQSVKSSEQLNKSLCDINNIIKRVNKYIQVKNINNSIYEFQKQNNEVSIKEDMIDDLFDTLNYDIDMIQEEDEIVSKVLDELGIQLNSKLEQIPTIKQTENEQLDNVNISKIEDRINNLKKM	soluble
MAHHHHHHMHADGMHTEQDEFTLSQYVQRTPLARPLGLKIGARVMLRTNLAPGLVNGSLGTVVAFRKLEMDQLPRYIVGNAQREESILQYADYLKYEQGFEVPLVPVLDFNGRQEVIPPVTHFVGGLPNTHFYSMGIIALPLSLAYAFTVHKVQGLTLVGRVHLELSRMWPCEHLLYVAMSRVRNPEQLSVSSFHPSLVRAAADCLLFDDSLPPVTQVRIAPYMVAATWRRSSERRKKTVLRKRLEAYVKRRQQRLQSEASKGDIRAEIRLLEEKMLKQRVRASAAHRKRRSTPGKLGAVAGSPMV	not soluble
MAHHHHHHMHAYSGRMEHRKMVEVKDVPQNMYTYGKEGMSIPISIFKDQADPVIGPEWTYPGIFENKIVAQHWYMEELFDREKSNTFESPWQRQVLDNQVKRRLGKVAWRMSMLNIKTIDIFHKERGASKRPGAGDTKAPATPAGKK	not soluble
MAHHHHHHMISYSGVLYTSDLMAQLMEMVKYSTHASSRDSDAQRLLRYAVRGSSAAQDDLYRSLWLKVEMVADSRVLGRYIGAREPWSPIRVCFDERGLFKSYPPLVHASAKKTSAIEADATSGSGSTTMEEEQRQQSERQGMSTEITSHTSEGGEEMVEGVRGAVVAEASEASGVKDVALQEASHGEQRTVEALDLRWDDIHRLIERTRALTSPPTERHPQQEKMEIFTGIAVYLRTIATGRRYCSGEEEAGGEYPAESRERALFAVGYELDVWARLFELVQEVRHDMEKFITDNAAHHVEPEFECWEALLITLRCILDFCVVRTQEKGKEERAAVEELFEKTMKLRNELVEESRTRFGGRMRILWLQEA	not soluble
MAHHHHHHMKAFFIGKREYRRVLSLQETIFNAKIARQVSVRRGASKLPLLPDVVILVEHSTPVYTIGRRDTTHGLPPHCSIDVVKTRRGGGITYHGPGQLTMYPIANIQLLWKDCTAEKPRSPIEWFSWALEEAMIQTAAMYHIPTHRFKTGVWADQYKDIPAQKLGAVGLQLGSWVSMHGAGLNVASDLHFFDDIIMCELPDRRATSLSNEMQHRGVAESPPLVQATAPVLLQKFIESLHQQPSCAAPQLVDLSADADWHERVIDTAGISTP	not soluble
MAHHHHHHMKKSINILVCNNYLIHDFLSFFKNSDIDVGTKMDFIQKKASQVRIILLNGNEIMPGINVNYLEQIKEVFINAKIYVRYVVQEVGTVSIMELGQLEQDNIPYERKLAGYVLPNVHVKIDSKTNVMKIKSDNVFSQYYNNGKLTSQAFDQGGFFKTKYVASLAENALLKIEGIHNDMENIPDEYYLYFKQRRDKMEKHPPGYLKRVPLQGQIWGNFHANRRNWKRKF	not soluble
MAHHHHHHMKLEFAHEAIVSRRRLSKFGYSLQTEKWTLHVNKKKRERKRKDSKKREEGEVIITKNANEREIKTVEESKHHTTCRLWFANVAACMYFLALATEELNTILQTEVFSKQRLIYWQMYHMPCSHISCMSARIPPLPPFRLYVTLKPKMRGSIFANISVGRMVGYEAAWSSTYSKRKR	not soluble
MAHHHHHHMKRRCDLLEVHSVAARPHKRGGTETTREHHFPLYSHPMFRAARHNANAVQDAVAEQSDRVDPGALDAALENMVTQLVEQRLSRHEAEGDTSPTLAKKNFIVTESELLALLAEATHATPLSPRPQQPPSAFPPSRPEAIAALAAAAAASSPPPQQGPFIPNQGYHTTHPPLQSNGDAERRAGPPPRTQASLFSGAASALGGDEPDELNVVSVGALQQAALRSLGHMDEQAAPRLPPLSESVASTTSGPTTKQRHPPTMPLYSLLPCLVASPGLTAASVLPAIVSSSLNPSPSSVTFREMDRCPGTGTGLVAQQSVDAQQLHQVPDAVFAAMDVLMDGNNCCMRRRKRLVATNGNKAESLSLNPRCLPGSGGGASGGSCFAFGCGSKGASLNRMYVPVAQNTLPAPPPPRTASEAKARRILEGQRRKQRLHDQQQHLVSNSFSLAGGGNTAPLSSSLVEFRSDTTSLPTEPFRWRHIDRSGSRTHSSAHPAPLPAASSVSRSAAVVVGTASTLPLTQEASLTFTLRDIAGEPVYMQAISAANRCWPASLI	not soluble
MAHHHHHHMKYGQVVVGPAGSGKTNYCKLMKEFMKIKKRNCYVVNLDSASEEYYYERKKKAINTTSNIEKELKQYYDTIYDIDIRNYVDVNSLMEDQMLGPNCALLRSVELLYENSYLLEDELNNYDDDENYFIIDTPGQIELYTHTDYFKKILSIFTDQNIRLIVVFLVDISFISSNTKLLSAYLTSLSTMINFELPHINILTKCDLLASKNYYQELRKFKHNNNFFFQRKLYKKINKKIKGGRGSRFFLNDKAEQSDGEGKRPSDDLGDTFLKEMECINGDKSFKDEYILCSDYDKRSVSSFSSASMSEGRSEKFGKNSSDEHSSSSVRSEEIEEKIYQKNYEKLNDILSLDPHDIVMTANKCMSRKYYKLNNAFAHIIEDFNLVSFIPLNIYDDDNVDFIINSIDMIIQYGEDKDVNDNYDM	not soluble
MAHHHHHHMLANYDYESDLRGRTDELGRAQHVDAYDKHPTFLESPYAGQEDLLRDAPQSYMDGPPPGYGGHDAYEHVDMNGGGYDLPLQPQAQTQAVDTRRLSKDRLARGGLNIFSWSTDAPTLNHPREVRERDCAELQRLRPVDSAAQRDKEVREKFEGNTQSRFLCFSESDSPGKRRGVRVFNPNNKNGNLNSGTGHENPIQNRFNEEPQPFKIRQQQPRPLPQQNLPPAGRATHSNRQESGGIPGFAGMGEGRQHNARRGRGSYRG	soluble

— the DeepSol protein solubility set
